The source of these data is IntAct's records for PubMed 18996118.

The chains are these.
B1: Membrane protein insertase YidC (Escherichia coli (strain K12)), P25714 (parent)
chain: MDSQRNLLVIALLFVSFMIWQAWEQDKNPQPQAQQTTQTTTTAAGSAADQGVPASGQGKLISVKTDVLDLTINTRGGDVEQALLPAYPKELNSTQPFQLLETSPQFIYQAQSGLTGRDGPDNPANGPRPLYNVEKDAYVLAEGQNELQVPMTYTDAAGNTFTKTFVLKRGDYAVNVNYNVQNAGEKPLEISSFGQLKQSITLPPHLDTGSSNFALHTFRGAAYSTPDEKYEKYKFDTIADNENLNISSKGGWVAMLQQYFATAWIPHNDGTNNFYTANLGNGIAAIGYKSQPVLVQPGQTGAMNSTLWVGPEIQDKMAAVAPHLDLTVDYGWLWFISQPLFKLLKWIHSFVGNWGFSIIIITFIVRGIMYPLTKAQYTSMAKMRMLQPKIQAMRERLGDDKQRISQEMMALYKAEKVNPLGGCFPLLIQMPIFLALYYMLMGSVELRQAPFALWIHDLSAQDPYYILPILMGVTMFFIQKMSPTTVTDPMQQKIMTFMPVIFTVFFLWFPSGLVLYYIVSNLVTIIQQQLIYRGLEKRGLHSREKKKS
partner: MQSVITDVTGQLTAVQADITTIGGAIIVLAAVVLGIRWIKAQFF
B2: Capsid protein (Pseudomonas phage Pf3), P03623 (parent)
chain: B1 partner
partner: B1 chain

The variants in the first experiment derive from B1. Particulars: with capsd_bppf3 VIII.
M430C: the “effect of a mutation on the interaction” value is on record as “increasing interaction”.

In the next experiment the parent is B1. Particulars: with capsd_bppf3 VIII. This is another data set of the same source.
On to F17C, for which the “effect of a mutation on the interaction” value is on record as “increasing interaction”.

A further experiment covers variants of B1. Particulars: with capsd_bppf3 VIII, P03623.
As for S16C, the “effect of a mutation on the interaction” value is listed as “increasing interaction”.

The variants in the next experiment derive from B2. The settings on record: with yidc_ecoli yidC, P25714.
As to I27C, the “effect of a mutation on the interaction” value was “increasing interaction”.

In another experiment the parent is B2. Particulars: with yidc_ecoli yidC.
As for V28C, the “effect of a mutation on the interaction” value is “increasing interaction”.
